B1: Chromatin assembly factor 1 subunit A (Schizosaccharomyces pombe (strain ATCC 38366 / 972)), Q1MTN9 (parent)
chain: MNSESVDSDVAASTSNKGNELCSSSTDITSLSVSSPNESVIHSSHSASEADEYVCKLSYEGNRKKRIYNGSAEAGKEKKLQKQRAQEERIRQKEAERLKREKERQQREQEKKLREQEKIAAKKMKELEKLEKERIRLQEQQRRKEERDQKLREKEEAQRLRQEQILNKERQQLKLNNFFTKGVEKRIAPNENFVADKTDELNEFEKEFRPFFIKHQMSLSKYPSPNESDSFLDEVLSTSKSYPLKLNDIFTPSDAVSSANSLGVSNRNSENEVRQLMSAYQDPSVSKPQEILSCLSQIPIKFIFFYQDVRPPYFGSYTKTHSHGSNVLLNPWLEDEDIDYTYDSEAEWVADEEDDGEDLESEDEEVDNSDDIVEDGDNAFVDDEDDDKDSVNASNTHRSSGPLEVIVEGPVWDSKFLPDFNCLSLIEPISSFSASTYLQIDPKEDLWASQDTAPASSGMTIGPTSSLSDDLQVRFPSEDIPKFIEYVRNSHDNKVFLIENLRHMFPYVTKNIISETLGKVAVRKGKSVSDGWIIKENFASLLSS
partner: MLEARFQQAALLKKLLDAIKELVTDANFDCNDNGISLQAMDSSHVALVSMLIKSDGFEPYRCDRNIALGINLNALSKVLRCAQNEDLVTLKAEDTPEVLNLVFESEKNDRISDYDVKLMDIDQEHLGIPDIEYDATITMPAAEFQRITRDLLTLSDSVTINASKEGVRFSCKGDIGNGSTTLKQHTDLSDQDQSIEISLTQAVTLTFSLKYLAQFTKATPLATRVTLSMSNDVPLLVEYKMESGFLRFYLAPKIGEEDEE

Variants of: B1
Settings: with pcna_schpo pcn1, Q03392

Row | Variant | effect of a mutation on the interaction
1 | Q172A;L175A;F178A;F179A | disrupting interaction strength
